Source: paper PMC9942802

Biological target: tube protein gp14 (cyanophage Pam3)
Assay: cryo-EM structure

tube protein gp14 (natural protein)
stoichiometry N: 6
